Assay results taken from publication doi:10.1101/2023.02.23.529715 (bioRxiv, 2023).
Where two headings read alike, the source gives them in different places.

T1: GFP-HilD (Salmonella enterica, UniProt P0CL08 1-309)
T1 sequence (looked up): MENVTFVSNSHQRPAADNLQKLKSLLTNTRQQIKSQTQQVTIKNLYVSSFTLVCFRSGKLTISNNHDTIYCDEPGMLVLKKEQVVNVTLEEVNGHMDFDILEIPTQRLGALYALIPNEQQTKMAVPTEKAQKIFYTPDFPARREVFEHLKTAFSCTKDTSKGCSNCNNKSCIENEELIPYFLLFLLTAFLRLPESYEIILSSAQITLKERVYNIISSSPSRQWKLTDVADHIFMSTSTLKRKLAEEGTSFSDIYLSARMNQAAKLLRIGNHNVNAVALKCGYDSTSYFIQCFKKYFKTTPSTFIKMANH


Key:
[1] = molecular target: GFP-HilD (Salmonella enterica) (UniProt P0CL08); assay: MST
[2] = molecular target: HilD (full length, unfused) (Salmonella enterica) (UniProt P0CL08); assay: SEC-MALS
[3] = molecular target: HilD N-terminal domain (HilD NTD, residues 7-206) (Salmonella enterica) (UniProt P0CL08); assay: SEC-MALS
[4] = molecular target: GFP-HilD (Salmonella enterica) (UniProt P0CL08); assay: MST; remark: listed apart in the source
SEC-MALS = molecular target: the molecule itself; assay: SEC-MALS
GFP-HilD [5] = molecular target: T1, GFP-HilD; assay: MST
GFP-HilD [6] = molecular target: T1, GFP-HilD; assay: MST; remark: listed apart in the source

Row | Molecule | Kd [1] [nM] | stoichiometry N (HilE per HilD) [2] | stoichiometry N (HilE per HilD NTD) [3] | Kd [4] [nM] | stoichiometry N (SEC-MALS) | Kd (GFP-HilD [5]) [µM] | Kd (GFP-HilD [6]) [µM]
1 | HilE (natural protein) | 1700 | 1 | 1 | 1680 | – | – | –
2 | HilD N-terminal domain (HilD NTD, residues 7-206) (domain or fragment, Salmonella enterica, UniProt P0CL08 7-206, looked up) VSNSHQRPAADNLQKLKSLLTNTRQQIKSQTQQVTIKNLYVSSFTLVCFRSGKLTISNNHDTIYCDEPGMLVLKKEQVVNVTLEEVNGHMDFDILEIPTQRLGALYALIPNEQQTKMAVPTEKAQKIFYTPDFPARREVFEHLKTAFSCTKDTSKGCSNCNNKSCIENEELIPYFLLFLLTAFLRLPESYEIILSSAQIT | – | – | – | – | 2 | – | –
3 | HilD (full length, unfused) (natural protein, Salmonella enterica, UniProt P0CL08 1-309, looked up) MENVTFVSNSHQRPAADNLQKLKSLLTNTRQQIKSQTQQVTIKNLYVSSFTLVCFRSGKLTISNNHDTIYCDEPGMLVLKKEQVVNVTLEEVNGHMDFDILEIPTQRLGALYALIPNEQQTKMAVPTEKAQKIFYTPDFPARREVFEHLKTAFSCTKDTSKGCSNCNNKSCIENEELIPYFLLFLLTAFLRLPESYEIILSSAQITLKERVYNIISSSPSRQWKLTDVADHIFMSTSTLKRKLAEEGTSFSDIYLSARMNQAAKLLRIGNHNVNAVALKCGYDSTSYFIQCFKKYFKTTPSTFIKMANH | – | – | – | – | 2 | 4.52 ± 0.5 | 3.39 ± 0.77
